Measurements reported in PMC7689096, “Cyclizing Painkillers: Development of Backbone-Cyclic TAPS Analogs” (Frontiers in Chemistry, 2020).
Numbered stars: 1 amine (or outer) side, 2 acyl side, 3 side chain; on linkers, the order of the positions; unused ones are H or OH. Bridge positions count the residues as written; N and C are the ends. Square brackets hold non-standard residues; d marks the D form. Ends that are not written are not given here. Peptide text beside a SMILES is read from it. N(6-aminohexyl)Gly = O=C(CN(CCCCCCN[*:3])[*:1])[*:2]; NGly(3-aminopropyl) = O=C(CN(CCCN[*:3])[*:1])[*:2]; CO = O=C([*:1])[*:2]; Sar = CNCC(=O)O

Assays:
[1] = test system: Brush Border Membrane Vesicle (BBMV) enzymes; experiment: in vitro; type: in vitro ADME; conditions: rat BBMV
Experimental: A few of the peptides from the library were selected for further evaluation. The TAPS c(2-6) representative MOP agonists, TAPS c(6-2) and TAPS c(4-2) were not evaluated for opioid receptor interaction, and two non-active cyclic peptides, TAPS c(3-2) and TAPS c(6-6), having a smaller and larger ring sizes, respectively. The backbone-cyclic peptide stability in the GI tract was evaluated using rat origin pooled Brush Border Membrane Vesicle (BBMV) enzymes and were compared to the stability of linear TAPS (Figure 6).
1. Mass spectrometry analyses … 1
2. Metabolic Stability in BBMVs … 1
2.1 Preparation of BBMVs … 1
2.2 Experimental protocol for BBMVs … 2
3.1 In vitro cell based model: Caco-2 cell culture permeability studies … 2 3.1.1 Growth and Maintenance of the Cells: … 2
3.1.2 Preparation of the Cells for Transport Studies: … 2
3.2 Experimental Protocol … 2
3.3 Data Analysis of In Vitro Studies … 3
3.4 Statistical Analysis of the In Vitro Studies … 3
3.5 Statistical Analysis of Pharmacodynamic Studies … 3
3.6 Analytical Methods for Compound Concentration … 3
5. Supplementary Figures … 6
6. Supplementary Tables … 7
1. Mass spectrometry analyses
Mass spectra were acquired on a LCQ Fleet Ion Trap mass spectrometer (Thermo Scientific) utilizing electrospray ionization. For high resolution mass spectrometry (HRMS) analyses, the spectra were recorded on an Agilent 6550 iFunnel Q-TOF LC/MS system.
2. […]

[2] = Caco-2 permeability assay; conditions: human
[3] = test system: mice; experiment: Mouse open field test (locomotor adverse effect); conditions: 5 mg/kg IP
Experimental: In the mouse open field test (OF test), the distance and speed the animal moves over a 5-min time period is recorded, giving an indication as to whether a medication administered affected its locomotor activity. TAPS c(2-6) (5 or 15 mg/kg) was administered via IP administration and compared to morphine (5 mg/kg) and vehicle (PBS).
Male ICR mice (Harlan, Israel) 7 weeks of age (25–27) were used for all pharmacodynamic experiments after 5-day acclimation to laboratory conditions. Animals were allowed free access to food (standard commercial, sterile rodent diet) and water throughout the experiments and kept in automatically controlled environmental conditions for temperature and humidity levels in a 12-h dark-light cycle.
Animals were placed in the OF apparatus for a period of 5 min. The apparatus utilizes computerized monitoring which measures the speed and distance the animal walks during the measurement period. […] Baseline measurements were taken 1 day before initiation of the experiments and again at 0.5, 1.5, 3, and 5 h post injection.

[4] = target: T1, δ (DOP, OPRD2) opioid receptor (Mus musculus, UniProt P32300); experiment: DOP opioid receptor functional agonism in NG-10815 cells; type: cell-based, rat; conditions: At 10^−6 M, percent of control specific agonist response
T1 construct: NG-10815 cells which express significant endogenous levels of δ opioid receptors; host or cells: NG-10815 (NG108-15) mouse N18TG2 neuroblastoma x rat C6-BU-1 glioma hybrid cells
Experimental: (§1) Peptides were tested for μ (MOP, OPRM1) and δ (DOP, OPRD2) opioid receptor activation functional agonism and antagonism using CHO cells expressing human recombinant μ receptors and NG-10815 cells which express significant endogenous levels of δ opioid receptors. The cultures were incubated for 10 min at 37°C followed by impedance measurements of CHO cells and cAMP was assayed by the HTRF method using NG-10815 cells, according to CEREP standard assay protocols. The respective reference, non-peptide small molecules were tested concurrently with the TAPS analogs. The agonist compounds were: DPDPE (selective agonist of DOP receptor) and DAMGO (high MOP receptor specificity) and the antagonist compounds were: Naltrindole (selective DOP receptor antagonist) and CTOP (MOP receptor antagonist). […] The results are expressed as a percentage of respective control-specific response. […] These findings indicate that TAPS cyclic peptides are MOP selective full agonists. […] The cyclic TAPS peptide had lower activity than the linear parent TAPS peptide (90 ± 5%) – a finding that can be attributed to their restricted conformation relative to the flexible linear peptide conformation.
Evaluation of the Agonist Activity of Compounds at the Rat delta2 Receptor Endogenously Expressed in NG-10815 Cells, Determined by Measuring Their Effects on Impedance Modulation Using the CellKey (CDS) Detection Method
Cells are seeded onto 96-well plate coated with fibronectin at 2 × 10^5 cells/well in HBSS buffer (Invitrogen) + 20 mM HEPES (Invitrogen) with 0.1% BSA and allowed to equilibrate for 60 min at 37°C before the start of the experiment. Plates are placed onto the system and measurements are made at a temperature of 37°C. […] Impedance measurements are monitored for 10 min after ligand addition. The standard reference agonist is DPDPE, which is tested in each experiment at several concentrations to generate a concentration-response curve from which its EC50 value is calculated.
The respective reference, non-peptide small molecules were tested concurrently with the TAPS analogs; Agonist compounds DPDPE ([D-Pen2,D-Pen5]enkephalin), selective agonist of DOP receptor at 2 × 10^−9 M and DAMGO ([D-Ala2, N-MePhe4, Gly-ol] enkephalin), high MOP specificity at 2.5 × 10^−9 M; Antagonist compounds: naltrindole 7-(cyclopropylmethyl)-6,7-dehydro-4,5α-epoxy-3,14-dihydroxy-6,7-2′,3′-indolomorphinan hydrochloride, selective DOP antagonist, 5 × 10^−10 M and CTOP (D-Phe-Cys-Tyr-D-Trp-Orn-Thr-Pen-Thr-NH2), MOP antagonist at 3.4 × 10^−7 M. Depending on the assay volume and solvent tolerance, the stock solutions were diluted to [100×], [333×] or [1,000×] in 100% DMEM solvent, then either added directly or further diluted to [10×] or [5×] in H2O or Hank's balanced salt solution (HBSS) before addition to the assay well (final solvent concentration kept constant). The cultures were incubated for 10 min at 37°C followed by impedance measurements using cellular dielectric spectroscopy of CHO cells and cAMP was assayed by homogeneous time resolved fluorescence (HTRF) method using NG-10815 cells, according to CEREP standard assay protocols (https://euroscreenfast.com/assays/opioid-orl1-camp-fast-0360c; https://euroscreenfast.com/assays/opioid-op1-delta-camp-fast-0379c). […]

[5] = target: T1, δ (DOP, OPRD2) opioid receptor; experiment: DOP opioid receptor functional antagonism in NG-10815 cells; type: cell-based, rat; conditions: Between 10^−9-10^−6 M, percent inhibition of control specific agonist response
Experimental: as §1
(§2) The respective reference, non-peptide small molecules were tested concurrently with the TAPS analogs; Agonist compounds DPDPE ([D-Pen2,D-Pen5]enkephalin), selective agonist of DOP receptor at 2 × 10^−9 M and DAMGO ([D-Ala2, N-MePhe4, Gly-ol] enkephalin), high MOP specificity at 2.5 × 10^−9 M; Antagonist compounds: naltrindole 7-(cyclopropylmethyl)-6,7-dehydro-4,5α-epoxy-3,14-dihydroxy-6,7-2′,3′-indolomorphinan hydrochloride, selective DOP antagonist, 5 × 10^−10 M and CTOP (D-Phe-Cys-Tyr-D-Trp-Orn-Thr-Pen-Thr-NH2), MOP antagonist at 3.4 × 10^−7 M. Depending on the assay volume and solvent tolerance, the stock solutions were diluted to [100×], [333×] or [1,000×] in 100% DMEM solvent, then either added directly or further diluted to [10×] or [5×] in H2O or Hank's balanced salt solution (HBSS) before addition to the assay well (final solvent concentration kept constant). The cultures were incubated for 10 min at 37°C followed by impedance measurements using cellular dielectric spectroscopy of CHO cells and cAMP was assayed by homogeneous time resolved fluorescence (HTRF) method using NG-10815 cells, according to CEREP standard assay protocols (https://euroscreenfast.com/assays/opioid-orl1-camp-fast-0360c; https://euroscreenfast.com/assays/opioid-op1-delta-camp-fast-0379c). The results (mean of three experiments) are expressed as a percent of control specific agonist response [(measured TAPS specific response/control specific agonist response) × 100] and as a percent inhibition of control specific agonist response [100 – (measured TAPS specific response/control specific agonist response) × 100] obtained in the presence of the TAPS compounds. Results showing a stimulation or an inhibition lower than 25% were considered not significant and mostly attributable to variability of the signal around the control level. Results showing a stimulation or an inhibition higher than 50% were considered to represent significant effects of the TAPS compounds.

[6] = target: T2, human recombinant μ (MOP, OPRM1) receptor (Homo sapiens, UniProt P35372); experiment: MOP opioid receptor functional antagonism in CHO cells expressing human recombinant μ receptors; type: cell-based; conditions: Between 10^−9-10^−6 M, percent inhibition of control specific agonist response, values lower than 25% not significant
T2 construct: host or cells: CHO cells
Experimental: as §1, §2

[7] = target: T2, human recombinant μ (MOP, OPRM1) receptor; experiment: MOP opioid receptor functional agonism in CHO cells expressing human recombinant μ receptors; type: cell-based; conditions: At 10^−6 M, percent of control specific agonist response, values lower than 25% not significant
Experimental: as §1
Evaluation of the Agonist Activity of Compounds at the Human μ Receptor in Transfected CHO Cells, Determined by Measuring Their Effects on cAMP modulation Using the HTRF Detection Method
Thereafter, the adenylyl cyclase activator NKH 477 is added at a final concentration of […]. Following 10 min incubation at 37°C, the cells are lysed and the fluorescence acceptor (D2-labeled cAMP) and fluorescence donor (anti-cAMP antibody labeled with europium cryptate) are added. After 60 min at room temperature, the fluorescence transfer is measured at lex = 337 nm and lem = 620 and 665 nm using a microplate reader (Rubystar, BMG). The cAMP concentration is determined by dividing the signal measured at 665 nm by that measured at 620 nm (ratio). The results are expressed as a percent of the control response to 1 μM DAMGO. The standard reference agonist is DAMGO, which is tested in each experiment at several concentrations to generate a concentration-response curve from which its EC50 value is calculated.
as §2, with “Results showing a stimulation or an inhibition lower than 25% were considered not significant and mostly attributable to variability of the signal around the control level. Results showing a stimulation or an inhibition higher than 50% were considered to represent significant effects of the TAPS compounds.” left out

T2 sequence (P35372 whole entry): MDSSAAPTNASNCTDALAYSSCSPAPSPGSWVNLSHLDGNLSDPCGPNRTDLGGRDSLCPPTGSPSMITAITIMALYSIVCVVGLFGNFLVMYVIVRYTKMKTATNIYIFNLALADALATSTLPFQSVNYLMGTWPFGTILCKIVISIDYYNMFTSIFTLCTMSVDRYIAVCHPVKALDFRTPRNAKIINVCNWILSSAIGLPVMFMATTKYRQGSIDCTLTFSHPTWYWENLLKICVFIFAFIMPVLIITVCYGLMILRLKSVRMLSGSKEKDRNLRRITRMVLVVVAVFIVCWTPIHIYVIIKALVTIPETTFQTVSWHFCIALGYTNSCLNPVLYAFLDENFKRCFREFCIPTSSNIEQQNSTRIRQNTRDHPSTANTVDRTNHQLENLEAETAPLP
T1 sequence (P32300 whole entry): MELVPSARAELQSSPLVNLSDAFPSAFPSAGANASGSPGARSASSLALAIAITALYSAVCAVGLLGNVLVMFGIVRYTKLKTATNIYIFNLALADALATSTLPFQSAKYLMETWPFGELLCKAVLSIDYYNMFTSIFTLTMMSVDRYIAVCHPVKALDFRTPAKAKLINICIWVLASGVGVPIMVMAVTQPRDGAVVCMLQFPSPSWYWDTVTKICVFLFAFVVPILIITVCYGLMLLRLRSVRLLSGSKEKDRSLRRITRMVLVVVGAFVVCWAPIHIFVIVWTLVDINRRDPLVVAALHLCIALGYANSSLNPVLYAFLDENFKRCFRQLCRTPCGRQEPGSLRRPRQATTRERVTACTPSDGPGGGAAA

CN(CC(=O)O)C(=O)[C@H](Cc1ccccc1)NC(=O)[C@@H](CCCN=C(N)N)NC(=O)[C@@H](N)Cc1ccc(O)cc1 [Linear, Tyr-D-Arg-Phe-Sar] (H-Y[dR]F[Sar]-OH)
metabolised at 0.5 h ([1]; male, Wistar, kidney or brush border membranes, pH 7.4, after treatment for 30 min, read-out: peptide degraded by intestinal enzymes): > 80% | peptide fate with intestinal enzymes ([1]; after 60 min): decomposed

COCCc1ccc(OCC(O)CNC(C)C)cc1 (stereo not drawn) [metoprolol, reference compound]
Papp at 150 min [2]: 13 ×10⁻⁶ cm/s

CN1CC[C@]23c4c5ccc(O)c4O[C@H]2[C@@H](O)C=C[C@H]3[C@H]1C5 [morphine, reference compound]
locomotor effect (distance and speed of movement over 5 min) [3]: excitatory effect

TAPS c(3-3): backbone-cyclic TAPS analog, urea bridge; ring size 16 (YRF[NGly(3-aminopropyl)]-NH2; bridge 2-4 via CO; not fully specified (residue 2); also: urea bridge between the two N-alkyl chains)
DOP agonist (%) [4]: 14% | DOP antagonist (%) [5]: 11% | MOP antagonist (%) [6]: 2% | MOP agonist (%) [7]: 1%

TAPS c(6-6): backbone-cyclic TAPS analog, urea bridge; ring size 22 (YRF[N(6-aminohexyl)Gly]-NH2; bridge 2-4 via CO; not fully specified (residue 2); also: urea bridge between the two N-alkyl chains)
DOP agonist (%) [4]: 1% | DOP antagonist (%) [5]: 6% | MOP antagonist (%) [6]: 3% | MOP agonist (%) [7]: 21%
